Assay results taken from the supplement of paper PMC9112550, “Optimization of the antimicrobial peptide Bac7 by deep mutational scanning” (BMC Biology, 2022).

Tested on: Escherichia coli TOP10
Experiment: shrunken log2 fold change of peptide-encoding DNA abundance (4.5 h post-induction vs induction); higher = less antimicrobial activity (less host growth inhibition)
Details: time post-induction: 4.5 h; library: site-saturation at positions 5, 18, 19, 20
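Note: peptides expressed intracellularly from a pBAD plasmid library in pooled LB shake-flask culture, induced with 0.3% L-arabinose, DNA abundance read by NGS, three biological replicates, DESeq2 with apeglm shrinkage.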

In order of rising “shrunken log2 fold change” value:
1. RRIRYRPPRLPRPRPRPPYNPRP  -1.41
2. RRIRYRPPRLPRPRPRPYAQPRP  -1.36
3. RRIRYRPPRLPRPRPRPLNNPRP  -1.29
4. RRIRYRPPRLPRPRPRPSYHPRP  -1.21
5. RRIRPRPPRLPRPRPRPWIIPRP  -0.919
6. RRIRTRPPRLPRPRPRPDNVPRP  -0.881
7. RRIRFRPPRLPRPRPRPFYPPRP  -0.824
8. RRIRYRPPRLPRPRPRPTAIPRP  -0.774
9. RRIRFRPPRLPRPRPRPHGYPRP  -0.707
10. RRIRSRPPRLPRPRPRPIGIPRP  -0.67
11. RRIRCRPPRLPRPRPRPCPDPRP  -0.612
12. RRIRERPPRLPRPRPRPQHSPRP  -0.597
13. RRIRSRPPRLPRPRPRPYVDPRP  -0.594
14. RRIRERPPRLPRPRPRPFTMPRP  -0.585
15. RRIRHRPPRLPRPRPRPPMNPRP  -0.543
16. RRIRARPPRLPRPRPRPYIWPRP  -0.543
17. RRIRPRPPRLPRPRPRPPYYPRP  -0.492
18. RRIRERPPRLPRPRPRPQVHPRP  -0.445
19. RRIRPRPPRLPRPRPRPDKSPRP  -0.442
20. RRIRIRPPRLPRPRPRPSPTPRP  -0.424
21. RRIRLRPPRLPRPRPRPSRHPRP  -0.415
22. RRIRQRPPRLPRPRPRPMYLPRP  -0.415
23. RRIRSRPPRLPRPRPRPWHCPRP  -0.403
24. RRIRARPPRLPRPRPRPFYCPRP  -0.402
25. RRIRSRPPRLPRPRPRPNFIPRP  -0.391
26. RRIRCRPPRLPRPRPRPGNMPRP  -0.368
27. RRIRYRPPRLPRPRPRPVNGPRP  -0.338
28. RRIRTRPPRLPRPRPRPPIHPRP  -0.323
29. RRIRERPPRLPRPRPRPSVDPRP  -0.318
30. RRIRGRPPRLPRPRPRPYYDPRP  -0.294
31. RRIRYRPPRLPRPRPRPTFPPRP  -0.279
32. RRIRIRPPRLPRPRPRPPTCPRP  -0.278
33. RRIRARPPRLPRPRPRPYRLPRP  -0.275
34. RRIRHRPPRLPRPRPRPVVMPRP  -0.245
35. RRIRDRPPRLPRPRPRPTKPPRP  -0.23
36. RRIRPRPPRLPRPRPRPSEPPRP  -0.213
37. RRIRSRPPRLPRPRPRPCMNPRP  -0.206
38. RRIRFRPPRLPRPRPRPSMEPRP  -0.202
39. RRIRERPPRLPRPRPRPIMFPRP  -0.193
40. RRIRYRPPRLPRPRPRPFTHPRP  -0.187
41. RRIRRRPPRLPRPRPRPCLKPRP  -0.184
42. RRIRARPPRLPRPRPRPYTTPRP  -0.168
43. RRIRDRPPRLPRPRPRPAKRPRP  -0.161
44. RRIRQRPPRLPRPRPRPHKTPRP  -0.146
45. RRIRLRPPRLPRPRPRPFFTPRP  -0.144
46. RRIRCRPPRLPRPRPRPVIEPRP  -0.141
47. RRIRLRPPRLPRPRPRPCDPPRP  -0.14
48. RRIRFRPPRLPRPRPRPQTFPRP  -0.127
49. RRIRERPPRLPRPRPRPSGTPRP  -0.117
50. RRIRARPPRLPRPRPRPGNSPRP  -0.108
51. RRIRRRPPRLPRPRPRPEWHPRP  -0.107
52. RRIRLRPPRLPRPRPRPFFDPRP  -0.0987
53. RRIRTRPPRLPRPRPRPFLGPRP  -0.0873
54. RRIRMRPPRLPRPRPRPFPCPRP  -0.0872
55. RRIRTRPPRLPRPRPRPTYAPRP  -0.0854
56. RRIRVRPPRLPRPRPRPDIEPRP  -0.0848
57. RRIRRRPPRLPRPRPRPISTPRP  -0.0842
58. RRIRKRPPRLPRPRPRPLVVPRP  -0.0832
59. RRIRWRPPRLPRPRPRPLCHPRP  -0.0785
60. RRIRTRPPRLPRPRPRPDLFPRP  -0.0784
61. RRIRDRPPRLPRPRPRPWMCPRP  -0.0722
62. RRIRERPPRLPRPRPRPCLDPRP  -0.0689
63. RRIRTRPPRLPRPRPRPAWNPRP  -0.0659
64. RRIRDRPPRLPRPRPRPAMEPRP  -0.0517
65. RRIRDRPPRLPRPRPRPLIIPRP  -0.0486
66. RRIRLRPPRLPRPRPRPWYMPRP  -0.0481
67. RRIRNRPPRLPRPRPRPPQEPRP  -0.0479
68. RRIRYRPPRLPRPRPRPAGMPRP  -0.0428
69. RRIRMRPPRLPRPRPRPFSQPRP  -0.0398
70. RRIRDRPPRLPRPRPRPFVEPRP  -0.0362
71. RRIRTRPPRLPRPRPRPISDPRP  -0.0355
72. RRIRKRPPRLPRPRPRPMGRPRP  -0.0264
73. RRIRFRPPRLPRPRPRPMDGPRP  -0.0177
74. RRIRRRPPRLPRPRPRPHVSPRP  -0.0166
75. RRIRLRPPRLPRPRPRPTYLPRP  -0.0138
76. RRIRFRPPRLPRPRPRPDSFPRP  -0.00668
77. RRIRYRPPRLPRPRPRPHDCPRP  -0.00448
78. RRIRFRPPRLPRPRPRPAQGPRP  -0.00447
79. RRIRCRPPRLPRPRPRPCNGPRP  -0.00386
80. RRIRLRPPRLPRPRPRPQFVPRP  -0.0035
81. RRIRERPPRLPRPRPRPNACPRP  -0.00102
82. RRIRMRPPRLPRPRPRPDHIPRP  -0.000611
83. RRIRHRPPRLPRPRPRPQRDPRP  0.000147
84. RRIRDRPPRLPRPRPRPHVNPRP  0.000411
85. RRIRKRPPRLPRPRPRPMHAPRP  0.00395
86. RRIRNRPPRLPRPRPRPFRMPRP  0.00572
87. RRIRNRPPRLPRPRPRPHAGPRP  0.00938
88. RRIRGRPPRLPRPRPRPNRNPRP  0.00949
89. RRIRPRPPRLPRPRPRPVRIPRP  0.0103
90. RRIRTRPPRLPRPRPRPCSVPRP  0.0123
91. RRIRSRPPRLPRPRPRPTFSPRP  0.019
92. RRIRSRPPRLPRPRPRPTYAPRP  0.0244
93. RRIRIRPPRLPRPRPRPQAIPRP  0.0305
94. RRIRARPPRLPRPRPRPWMGPRP  0.0382
95. RRIRRRPPRLPRPRPRPVELPRP  0.0415
96. RRIRCRPPRLPRPRPRPMEEPRP  0.0671
97. RRIRPRPPRLPRPRPRPATTPRP  0.0694
98. RRIRHRPPRLPRPRPRPEQNPRP  0.0816
99. RRIRTRPPRLPRPRPRPQFAPRP  0.0816
100. RRIRPRPPRLPRPRPRPTFMPRP  0.0861
101. RRIRFRPPRLPRPRPRPKGSPRP  0.089
102. RRIRWRPPRLPRPRPRPTGIPRP  0.0938
103. RRIRRRPPRLPRPRPRPTDCPRP  0.0967
104. RRIRRRPPRLPRPRPRPGKTPRP  0.104
105. RRIRGRPPRLPRPRPRPKAYPRP  0.12
106. RRIRHRPPRLPRPRPRPLTKPRP  0.133
107. RRIRMRPPRLPRPRPRPMFEPRP  0.155
108. RRIRMRPPRLPRPRPRPEYVPRP  0.16
109. RRIRPRPPRLPRPRPRPVKVPRP  0.161
110. RRIRKRPPRLPRPRPRPCGEPRP  0.166
111. RRIRGRPPRLPRPRPRPKRLPRP  0.217
112. RRIRNRPPRLPRPRPRPTPQPRP  0.232
113. RRIRDRPPRLPRPRPRPSVAPRP  0.233
114. RRIRMRPPRLPRPRPRPTWMPRP  0.25
115. RRIRRRPPRLPRPRPRPTSMPRP  0.263
116. RRIRTRPPRLPRPRPRPPGIPRP  0.264
117. RRIRSRPPRLPRPRPRPTWKPRP  0.286
118. RRIRSRPPRLPRPRPRPTRNPRP  0.29
119. RRIRRRPPRLPRPRPRPSKSPRP  0.292
120. RRIRCRPPRLPRPRPRPGPKPRP  0.3
121. RRIRSRPPRLPRPRPRPPIEPRP  0.314
122. RRIRLRPPRLPRPRPRPSAEPRP  0.342
123. RRIRKRPPRLPRPRPRPWVSPRP  0.345
124. RRIRGRPPRLPRPRPRPMMEPRP  0.372
125. RRIRGRPPRLPRPRPRPEQTPRP  0.388
126. RRIRARPPRLPRPRPRPSDWPRP  0.402
127. RRIRGRPPRLPRPRPRPMVYPRP  0.438
128. RRIRARPPRLPRPRPRPNAWPRP  0.44
129. RRIRVRPPRLPRPRPRPELWPRP  0.459
130. RRIRGRPPRLPRPRPRPRFVPRP  0.467
131. RRIRMRPPRLPRPRPRPHRWPRP  0.478
132. RRIRKRPPRLPRPRPRPQNWPRP  0.508
133. RRIRFRPPRLPRPRPRPLPAPRP  0.51
134. RRIRARPPRLPRPRPRPGGFPRP  0.518
135. RRIRARPPRLPRPRPRPKLAPRP  0.555
136. RRIRWRPPRLPRPRPRPKKPPRP  0.558
137. RRIRRRPPRLPRPRPRPGPAPRP  0.562
138. RRIRWRPPRLPRPRPRPLHPPRP  0.597
139. RRIRRRPPRLPRPRPRPVGWPRP  0.666
140. RRIRNRPPRLPRPRPRPRRGPRP  0.78
141. RRIRARPPRLPRPRPRPAWWPRP  0.895
142. RRIRGRPPRLPRPRPRPPLSPRP  0.897
143. RRIRERPPRLPRPRPRPVMFPRP  0.934
144. RRIRMRPPRLPRPRPRPLRIPRP  1.06
145. RRIRCRPPRLPRPRPRPPDEPRP  1.07
146. RRIRGRPPRLPRPRPRPPCWPRP  1.09
147. RRIRTRPPRLPRPRPRPPPSPRP  1.16
148. RRIRWRPPRLPRPRPRPECVPRP  1.26
149. RRIRHRPPRLPRPRPRPTRFPRP  1.65
150. RRIRIRPPRLPRPRPRPDFKPRP  3.01
